In test [1] the target is human melanocortin 4 receptor (human), P32245. Nature of the test: competition with 125-NDP-α-MSH, BHK human MC4R membranes.
Test [2] has the same target. Nature of the test: cell-based or functional assay.
Test [3] concerns the target human melanocortin 1 receptor (human), Q01726. Nature of the test: cell-based or functional assay.
Test [4] concerns the target human melanocortin 4 receptor (human) (UniProt P32245). In words: competition with 125-NDP-α-MSH, BHK human MC4R membranes.
The target is the same in test [5]. Nature of the test: cell-based or functional assay.

Positions of bridges follow the written chain, without caps; N, C: chain ends. Non-standard residues stand in square brackets, D forms with d. Hyp = O=C(O)[C@@H]1C[C@@H](O)CN1; Dab = NCC[C@H](N)C(=O)O; Aib = CC(C)(N)C(=O)O

human melanocortin 1 receptor (human), Q01726, sequence (Q01726 whole entry): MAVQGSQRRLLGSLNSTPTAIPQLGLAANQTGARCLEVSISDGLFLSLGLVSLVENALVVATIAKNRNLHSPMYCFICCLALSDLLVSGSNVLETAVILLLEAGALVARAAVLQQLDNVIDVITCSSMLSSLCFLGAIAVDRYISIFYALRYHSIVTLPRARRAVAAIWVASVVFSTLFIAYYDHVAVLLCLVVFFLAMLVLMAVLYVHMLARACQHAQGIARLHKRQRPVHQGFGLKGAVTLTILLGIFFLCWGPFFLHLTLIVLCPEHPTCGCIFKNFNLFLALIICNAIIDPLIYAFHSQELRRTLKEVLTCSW
human melanocortin 4 receptor (human), P32245, sequence (P32245 whole entry): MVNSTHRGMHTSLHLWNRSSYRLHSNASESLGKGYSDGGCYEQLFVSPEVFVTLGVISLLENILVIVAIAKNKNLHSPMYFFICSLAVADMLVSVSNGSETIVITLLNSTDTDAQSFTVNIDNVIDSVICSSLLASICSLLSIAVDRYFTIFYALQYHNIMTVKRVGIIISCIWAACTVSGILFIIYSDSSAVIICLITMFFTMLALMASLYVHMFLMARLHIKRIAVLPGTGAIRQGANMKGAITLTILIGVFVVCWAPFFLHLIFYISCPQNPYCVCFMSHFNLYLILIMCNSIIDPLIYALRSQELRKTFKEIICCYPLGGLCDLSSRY
human melanocortin 4 receptor (human), sequence (P32245 whole entry): as above

The Ki is the equilibrium dissociation constant of an inhibitor or competing ligand from its target. On to CAHFRWCRFFNA (modifications not checked) [Chem. 12], for which the Ki in test [1] was determined as 0.28 nM. Besides, the MC4R cAMP EC50 in test [2] worked out at 0.07 nM. Besides, in test [3], the MC1R cAMP EC50 came out at 3.97 nM.
The molecule CAHFRWCAAFAW (modifications not checked) [Chem. 11] came in with a Ki in test [1] of 0.25 nM. The same molecule gave an MC4R cAMP EC50 in test [2] of 0.03 nM. The same molecule returned an MC1R cAMP EC50 in test [3] of 2.17 nM.
In turn, CAHFRWCAAAAR (modifications not checked) [Chem. 89] gave a Ki in test [1] of 0.07 nM. In test [2], this molecule had an MC4R cAMP EC50 of 0.02 nM. Also, the MC1R cAMP EC50 in test [3] was 0.59 nM.
The like results for CAHFRWCAYFKW (modifications not checked) [Chem. 80] were, in that order, 0.16 nM, 0.15 nM and 8.65 nM.

B1: Chem. 41 (peptide)
peptide: CXHFXWCXHFXW
modifications: Aib 2, 8; D-Phe 4, 10; Cit 5, 11; disulphide Cys1-Cys7; head-to-tail amide Cys1-Trp12
In test [4], B1 had a Ki of 5.39 nM. The same molecule returned an MC4R cAMP EC50 in test [5] of 1.34 nM.
The molecule CAHFRWCAKKKR (modifications not checked) [Chem. 85] displayed a Ki in test [1] of 0.02 nM. Moreover, the MC4R cAMP EC50 in test [2] was determined as 0.01 nM. In addition, the MC1R cAMP EC50 in test [3] was 0.22 nM.

B2: Chem. 43 (peptide)
peptide: CXHFXWCXHFXW
modifications: Aib 2, 8; D-Phe 4, 10; AGP 5, 11; disulphide Cys1-Cys7; head-to-tail amide Cys1-Trp12
As for B2, the Ki in test [4] was found to be 2.61 nM. In test [5], this molecule displayed an MC4R cAMP EC50 of 0.44 nM.
Regarding CAHFRWCPPERW (modifications not checked) [Chem. 112], the Ki in test [1] stood at 1.21 nM. For the same molecule, the MC4R cAMP EC50 in test [2] was 0.19 nM. Further, the MC1R cAMP EC50 in test [3] turned out to be 30.2 nM.

B3: Chem. 33 (peptide)
peptide: cyclo(C[dP]H[dF]RWC[dP]H[dF]RW)
modifications: disulfide 1-7
SMILES: N=C(N)NCCC[C@@H]1NC(=O)[C@@H](Cc2ccccc2)NC(=O)[C@H](Cc2c[nH]cn2)NC(=O)[C@H]2CCCN2C(=O)[C@@H]2CSSC[C@H](NC(=O)[C@H](Cc3c[nH]c4ccccc34)NC1=O)C(=O)N1CCC[C@@H]1C(=O)N[C@@H](Cc1c[nH]cn1)C(=O)N[C@H](Cc1ccccc1)C(=O)N[C@@H](CCCNC(=N)N)C(=O)N[C@@H](Cc1c[nH]c3ccccc13)C(=O)N2
As for B3, in test [4], the Ki stood at 27.8 nM. This molecule registered an MC4R cAMP EC50 in test [5] of 19.8 nM.
In test [1], CAHFRWCAAAAW (modifications not checked) [Chem. 88] gave a Ki of 0.2 nM. Moreover, the MC4R cAMP EC50 in test [2] is 0.02 nM. The molecule also had an MC1R cAMP EC50 in test [3] of 1.31 nM.
On the same counts, the results for CAHFRWCKKKR (modifications not checked) [Chem. 101] are 0.05 nM, 0.04 nM and 0.19 nM.

B4: Chem. 6 (peptide)
peptide: cyclo(CH[dF]RW[dA]CH[dF]RW[dA])
modifications: disulfide 1-7
SMILES: C[C@H]1NC(=O)[C@H](Cc2c[nH]c3ccccc23)NC(=O)[C@H](CCCNC(=N)N)NC(=O)[C@@H](Cc2ccccc2)NC(=O)[C@H](Cc2c[nH]cn2)NC(=O)[C@@H]2CSSC[C@H](NC1=O)C(=O)N[C@@H](Cc1c[nH]cn1)C(=O)N[C@H](Cc1ccccc1)C(=O)N[C@@H](CCCNC(=N)N)C(=O)N[C@@H](Cc1c[nH]c3ccccc13)C(=O)N[C@H](C)C(=O)N2
B4 yielded a Ki in test [4] of 0.19 nM. In test [5], this molecule showed an MC4R cAMP EC50 of 0.06 nM.
In test [1], CAHFRWCAEEAW (modifications not checked) [Chem. 102] registered a Ki of 10.1 nM. Further, the MC4R cAMP EC50 in test [2] came out at 0.49 nM. This molecule gave an MC1R cAMP EC50 in test [3] of 14.3 nM.
As for CAHFRWCAAAAW (modifications not checked) [Chem. 87], in test [1], the Ki came out at 0.17 nM. For the same molecule, the MC4R cAMP EC50 in test [2] turned out to be 0.04 nM. This molecule registered an MC1R cAMP EC50 in test [3] of 1.39 nM.
The like results for CAHFRWCAHFRW (modifications not checked) [Chem. 56] were, in that order, 1.82 nM, 0.44 nM and 35.3 nM.
With CAHFRWCRFFNAF (modifications not checked) [Chem. 13], in test [1], the Ki was determined as 0.26 nM. Also, the MC4R cAMP EC50 in test [2] was determined as 0.1 nM. In addition, the MC1R cAMP EC50 in test [3] turned out to be 6.36 nM.
The like results for CAHFRWCAKKKR (modifications not checked) [Chem. 59] were, in that order, 0.01 nM, 0.004 nM and 0.16 nM.

B5: Chem. 38 (peptide)
peptide: cyclo(C[Aib][Hyp][dF]RWC[Aib][Hyp][dF]RW)
modifications: disulfide 1-7
SMILES: CC1(C)NC(=O)[C@@H]2CSSC[C@H](NC(=O)[C@H](Cc3c[nH]c4ccccc34)NC(=O)[C@H](CCCNC(=N)N)NC(=O)[C@@H](Cc3ccccc3)NC(=O)[C@@H]3C[C@@H](O)CN3C1=O)C(=O)NC(C)(C)C(=O)N1C[C@H](O)C[C@H]1C(=O)N[C@H](Cc1ccccc1)C(=O)N[C@@H](CCCNC(=N)N)C(=O)N[C@@H](Cc1c[nH]c3ccccc13)C(=O)N2
In turn, B5 displayed a Ki in test [4] of 5.64 nM. Further, the MC4R cAMP EC50 in test [5] was found to be 4.22 nM.
In turn, CAHFRWCAHFRW (modifications not checked) [Chem. 10] gave an MC1R cAMP EC50 in test [3] of 4.88 nM.

B6: Chem. 46 (peptide)
peptide: cyclo(C[Aib]H[dF][Dab]WC[Aib]H[dF][Dab]W)
modifications: disulfide 1-7
SMILES: CC1(C)NC(=O)[C@@H]2CSSC[C@H](NC(=O)[C@H](Cc3c[nH]c4ccccc34)NC(=O)[C@H](CCN)NC(=O)[C@@H](Cc3ccccc3)NC(=O)[C@H](Cc3c[nH]cn3)NC1=O)C(=O)NC(C)(C)C(=O)N[C@@H](Cc1c[nH]cn1)C(=O)N[C@H](Cc1ccccc1)C(=O)N[C@@H](CCN)C(=O)N[C@@H](Cc1c[nH]c3ccccc13)C(=O)N2
B6 showed a Ki in test [4] of 7.86 nM. In test [5], this molecule came in with an MC4R cAMP EC50 of 5.65 nM.
Molecule CAHFRWCAAAAR (modifications not checked) [Chem. 90] registered a Ki in test [1] of 0.11 nM. This molecule also showed an MC4R cAMP EC50 in test [2] of 0.01 nM. This molecule had an MC1R cAMP EC50 in test [3] of 0.65 nM.
As for CAHFRWCAEEEW (modifications not checked) [Chem. 44], the Ki in test [1] stood at 50.9 nM. For the same molecule, the MC4R cAMP EC50 in test [2] was 1.53 nM. This molecule also showed an MC1R cAMP EC50 in test [3] of 31.9 nM.

B7: Chem. 86 (peptide)
peptide: cyclo(C[dK]H[dF]HWC[dK]H[dF]HW)
modifications: disulfide 1-7
SMILES: NCCCC[C@H]1NC(=O)[C@@H]2CSSC[C@H](NC(=O)[C@H](Cc3c[nH]c4ccccc34)NC(=O)[C@H](Cc3c[nH]cn3)NC(=O)[C@@H](Cc3ccccc3)NC(=O)[C@H](Cc3c[nH]cn3)NC1=O)C(=O)N[C@H](CCCCN)C(=O)N[C@@H](Cc1c[nH]cn1)C(=O)N[C@H](Cc1ccccc1)C(=O)N[C@@H](Cc1c[nH]cn1)C(=O)N[C@@H](Cc1c[nH]c3ccccc13)C(=O)N2
Take B7: the Ki in test [4] stood at 9.6 nM. Further, the MC4R cAMP EC50 in test [5] came to 14.5 nM.
The molecule CAHFRWCAHFRW (modifications not checked) [Chem. 111] yielded a Ki in test [1] of 0.04 nM. The MC4R cAMP EC50 in test [2] turned out to be 0.01 nM. Further, the MC1R cAMP EC50 in test [3] came out at 0.31 nM.
Consider CAHFRWCAHFRW (modifications not checked) [Chem. 8], for which the Ki in test [1] was 0.08 nM. The molecule also registered an MC4R cAMP EC50 in test [2] of 0.02 nM. The molecule also showed an MC1R cAMP EC50 in test [3] of 1.76 nM.

B8: Chem. 34 (peptide)
peptide: cyclo(C[dV]H[dF]RWC[dV]H[dF]RW)
modifications: disulfide 1-7
SMILES: CC(C)[C@H]1NC(=O)[C@@H]2CSSC[C@H](NC(=O)[C@H](Cc3c[nH]c4ccccc34)NC(=O)[C@H](CCCNC(=N)N)NC(=O)[C@@H](Cc3ccccc3)NC(=O)[C@H](Cc3c[nH]cn3)NC1=O)C(=O)N[C@H](C(C)C)C(=O)N[C@@H](Cc1c[nH]cn1)C(=O)N[C@H](Cc1ccccc1)C(=O)N[C@@H](CCCNC(=N)N)C(=O)N[C@@H](Cc1c[nH]c3ccccc13)C(=O)N2
For B8, the Ki in test [4] was 0.88 nM. In test [5], this molecule displayed an MC4R cAMP EC50 of 0.12 nM.

Source of the values: patent US20200223889A1, “Bicyclic Compounds Capable of Binding to Melanocortin 4 Receptor” (Novo Nordisk A/S, priority 2017, published 2020).
